The source of these data is paper PMC5141500.

The target of test [1] is NTSR1-EL (baculovirus construct with wild-type ICL3) (rat) (UniProt P20789).
Test [2] has as its target NTSR1-ELF (baculovirus construct with wild-type ICL3) (rat) (UniProt P20789).

Chain of Gq protein (P50148 whole entry, looked up): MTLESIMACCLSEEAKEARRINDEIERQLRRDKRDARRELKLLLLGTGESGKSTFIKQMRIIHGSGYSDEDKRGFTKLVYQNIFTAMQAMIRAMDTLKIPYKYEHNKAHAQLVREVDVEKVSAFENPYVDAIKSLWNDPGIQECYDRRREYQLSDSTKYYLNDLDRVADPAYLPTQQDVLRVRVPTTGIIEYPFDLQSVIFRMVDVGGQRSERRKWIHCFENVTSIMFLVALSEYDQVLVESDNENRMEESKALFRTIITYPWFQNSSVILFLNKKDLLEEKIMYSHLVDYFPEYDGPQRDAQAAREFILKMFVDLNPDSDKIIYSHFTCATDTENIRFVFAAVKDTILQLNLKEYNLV

Consider neurotensin (NTS) (peptide), for which the EC50 (NTS) GTPγS, half maximal effective concentration of NTS on the exchange of GDP for GTPγS on Gq in test [1] worked out at 5.5 nM.

In the case of “Gq protein (from UniProt P50148 1-359) (complex)”, the Fold-stimulation by NTS GTPγS: GDP/[35S]GTPγS exchange on Gq at saturating NTS compared to no ligand, urea-washed P2 insect cell membranes and purified Gq protein in test [1] is 3.3 fold; in test [2], 5.6 fold.
